According to PMC5733570:

Experiments:
[1] = target: TbTrm140 N-terminal deletion mutant (TbTrm140 ΔS2-G17) (T. brucei); experiment: SEC
[2] = target: TbTrm140 (3-methylcytosine methyltransferase of Trypanosoma brucei), wild type (T. brucei); experiment: SEC

Substance | stoichiometry N [1] | stoichiometry N [2]
TbTrm140 N-terminal deletion mutant (TbTrm140 ΔS2-G17) (enzyme) | 2 | –
TbTrm140 (3-methylcytosine methyltransferase of Trypanosoma brucei), wild type (enzyme) | – | 2
